In publication doi:10.1101/376806:

Target: Nucleosome: Xenopus laevis histone octamer with Cy3-labeled H2A T120C on Widom 601 DNA (Xenopus laevis)
Assay: single-molecule fluorescence co-localisation with photobleaching step counting

fraction of nucleosomes with one Chd1p: 47.8% | fraction of nucleosomes with three Chd1ps: 21.7% | fraction of nucleosomes with two Chd1ps: 30.4%
Substance: Alexa647-labeled Chd1p (from UniProt P32657 1-1468) (enzyme)
